The text below walks through data of article PMC7022901, “Back to GroEL-Assisted Protein Folding: GroES Binding-Induced Displacement of Denatured Proteins from GroEL to Bulk Solution” (Biomolecules, 2020).

The target of experiment [1] is T1, GroEL chaperonin (Escherichia coli, UniProt P0A6F5 1-548).
T1 construct: GroEL (hsp60) chaperonin of Escherichia coli, expressed from the cloned groE operon; 14 identical subunits of 57 kDa in two heptameric rings; no tag is mentioned; also called hsp60; GroEL14; source: E. coli HB101, multicopy plasmid pGroE4 (groE operon of E. coli in pACYC184), purified; copies: 14
Put plainly: native gel or EMSA; non-denaturing electrophoresis of GroEL with equimolar fluorescein-labeled denatured proteins in the presence of DTT and Mg-ADP, before and after 10 min incubation with a two-fold molar excess of GroES; Coomassie staining and fluorescence. Conditions: both partners purified. For orientation: A gel shift assay detects complexes by their altered migration in electrophoresis.

The target in experiment [2] is T1, GroEL chaperonin. The experiment in a line: FRET or BRET; streptavidin trap: denatured biotin- and fluorescein-labeled substrate diluted into equimolar GroEL, then streptavidin-aequorin and free biotin added; BRET (I520/I470) from aequorin to fluorescein reports substrate free in bulk solution; with or without 10 mM Mg-ATP and two-fold molar excess of GroES. Conditions: both partners purified.

T1 sequence (P0A6F5 whole entry): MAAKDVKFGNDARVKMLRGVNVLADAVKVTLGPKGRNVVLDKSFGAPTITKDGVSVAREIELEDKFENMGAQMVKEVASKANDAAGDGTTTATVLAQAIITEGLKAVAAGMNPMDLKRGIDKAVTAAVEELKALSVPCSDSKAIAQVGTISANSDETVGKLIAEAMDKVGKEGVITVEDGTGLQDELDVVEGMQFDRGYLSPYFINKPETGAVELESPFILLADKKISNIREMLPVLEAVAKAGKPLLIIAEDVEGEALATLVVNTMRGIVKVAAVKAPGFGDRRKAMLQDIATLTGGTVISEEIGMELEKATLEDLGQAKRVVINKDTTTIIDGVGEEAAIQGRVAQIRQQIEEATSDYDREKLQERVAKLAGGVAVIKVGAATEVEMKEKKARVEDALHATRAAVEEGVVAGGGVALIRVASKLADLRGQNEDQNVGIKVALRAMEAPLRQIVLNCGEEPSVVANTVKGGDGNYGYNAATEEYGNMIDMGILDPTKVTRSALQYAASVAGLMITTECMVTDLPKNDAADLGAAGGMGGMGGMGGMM

B1: GroES co-chaperonin (natural protein, Escherichia coli, UniProt P0A6F9 1-97, looked up)
chain: MNIRPLHDRVIVKRKEVETKSAGGIVLTGSAAAKSTRGEVLAVGNGRILENGEVKPLDVKVGDIVIFNDGYGVKSEKIDNEEVLIMSESDILAIVEA
notes: GroES (hsp10) co-chaperonin of Escherichia coli, expressed from the cloned groE operon; 7 identical subunits of ~10 kDa; no tag is mentioned; also called hsp10; GroES7; source: E. coli HB101, multicopy plasmid pGroE4 (groE operon of E. coli in pACYC184), purified
With B1, the binding result in the experiment with GroEL chaperonin [1] was “binds”.

B2: biotin- and fluorescein-labeled pig mitochondrial malate dehydrogenase, early refolding intermediate (natural protein, UniProt P00346 25-338, looked up)
chain: AKVAVLGASGGIGQPLSLLLKNSPLVSRLTLYDIAHTPGVAADLSHIETRATVKGYLGPEQLPDCLKGCDVVVIPAGVPRKPGMTRDDLFNTNATIVATLTAACAQHCPDAMICIISNPVNSTIPITAEVFKKHGVYNPNKIFGVTTLDIVRANAFVAELKGLDPARVSVPVIGGHAGKTIIPLISQCTPKVDFPQDQLSTLTGRIQEAGTEVVKAKAGAGSATLSMAYAGARFVFSLVDAMNGKEGVVECSFVKSQETDCPYFSTPLLLGKKGIEKNLGIGKISPFEEKMIAEAIPELKASIKKGEEFVKNMK
modifications: fluorescein label (5(6)-FAM, SE); biotin (biotin succinimide ester)
notes: pig mitochondrial malate dehydrogenase; also called BFM; MDH; source: bought: Sigma or Serva, additionally purified by ion-exchange and size-exclusion chromatography
On to B2, for which, in the experiment with GroEL chaperonin [2], the binding result is given as “binds”.
